The target of experiment [1] is T1, rat acid-sensing ion channel 1a (rat) (UniProt P55926).
T1 sequence: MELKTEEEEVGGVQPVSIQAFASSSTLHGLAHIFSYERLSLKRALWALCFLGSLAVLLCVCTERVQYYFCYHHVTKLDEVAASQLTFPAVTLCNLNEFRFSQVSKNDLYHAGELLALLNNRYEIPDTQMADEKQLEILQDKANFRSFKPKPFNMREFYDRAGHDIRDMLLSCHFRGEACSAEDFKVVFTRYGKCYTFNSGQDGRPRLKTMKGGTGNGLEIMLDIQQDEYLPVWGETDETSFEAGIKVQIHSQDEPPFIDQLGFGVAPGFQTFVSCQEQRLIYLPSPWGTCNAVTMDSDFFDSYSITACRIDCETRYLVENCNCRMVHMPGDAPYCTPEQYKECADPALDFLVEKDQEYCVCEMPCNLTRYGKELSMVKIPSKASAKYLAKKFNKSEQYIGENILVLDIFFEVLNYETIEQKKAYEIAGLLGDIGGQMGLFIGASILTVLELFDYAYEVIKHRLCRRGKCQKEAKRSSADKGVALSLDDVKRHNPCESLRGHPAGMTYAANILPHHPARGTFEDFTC

Experiment [2] concerns the target T2, human acid-sensing ion channel 1a (human) (UniProt P78348).
T2 sequence: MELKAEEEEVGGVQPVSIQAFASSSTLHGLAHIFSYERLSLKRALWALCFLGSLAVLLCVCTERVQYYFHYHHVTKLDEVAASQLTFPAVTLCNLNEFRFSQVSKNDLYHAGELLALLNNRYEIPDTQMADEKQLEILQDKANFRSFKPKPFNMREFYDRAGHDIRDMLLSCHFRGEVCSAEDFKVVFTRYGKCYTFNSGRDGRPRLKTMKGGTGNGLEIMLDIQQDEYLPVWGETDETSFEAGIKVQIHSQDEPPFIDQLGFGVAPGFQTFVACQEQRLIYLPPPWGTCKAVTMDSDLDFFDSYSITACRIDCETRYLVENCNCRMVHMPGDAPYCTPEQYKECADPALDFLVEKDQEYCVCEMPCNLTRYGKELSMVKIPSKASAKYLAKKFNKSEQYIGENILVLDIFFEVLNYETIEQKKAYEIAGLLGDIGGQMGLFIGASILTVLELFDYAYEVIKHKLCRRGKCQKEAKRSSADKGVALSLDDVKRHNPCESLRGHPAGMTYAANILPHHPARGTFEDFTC

Experiment [3] has as its target T3, rat acid-sensing ion channel 1b (rat).
T3 sequence (P55926 whole entry, looked up): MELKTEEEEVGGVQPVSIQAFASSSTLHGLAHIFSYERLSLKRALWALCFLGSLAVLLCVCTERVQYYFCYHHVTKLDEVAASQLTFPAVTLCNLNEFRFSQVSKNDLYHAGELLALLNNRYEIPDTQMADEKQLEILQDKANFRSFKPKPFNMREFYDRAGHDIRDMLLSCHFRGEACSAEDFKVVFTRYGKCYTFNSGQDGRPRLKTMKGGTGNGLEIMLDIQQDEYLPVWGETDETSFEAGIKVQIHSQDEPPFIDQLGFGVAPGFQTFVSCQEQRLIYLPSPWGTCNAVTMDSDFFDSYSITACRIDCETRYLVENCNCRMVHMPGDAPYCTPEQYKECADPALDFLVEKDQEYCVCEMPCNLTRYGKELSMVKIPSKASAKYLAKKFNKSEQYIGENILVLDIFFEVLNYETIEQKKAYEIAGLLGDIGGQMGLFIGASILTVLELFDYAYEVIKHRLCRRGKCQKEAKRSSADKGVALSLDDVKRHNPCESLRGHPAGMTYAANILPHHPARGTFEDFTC

In experiment [4] the target is T4, rASIC1a S83T/Q84E/R175C/E177G (rat) (UniProt P55926).
T4 sequence: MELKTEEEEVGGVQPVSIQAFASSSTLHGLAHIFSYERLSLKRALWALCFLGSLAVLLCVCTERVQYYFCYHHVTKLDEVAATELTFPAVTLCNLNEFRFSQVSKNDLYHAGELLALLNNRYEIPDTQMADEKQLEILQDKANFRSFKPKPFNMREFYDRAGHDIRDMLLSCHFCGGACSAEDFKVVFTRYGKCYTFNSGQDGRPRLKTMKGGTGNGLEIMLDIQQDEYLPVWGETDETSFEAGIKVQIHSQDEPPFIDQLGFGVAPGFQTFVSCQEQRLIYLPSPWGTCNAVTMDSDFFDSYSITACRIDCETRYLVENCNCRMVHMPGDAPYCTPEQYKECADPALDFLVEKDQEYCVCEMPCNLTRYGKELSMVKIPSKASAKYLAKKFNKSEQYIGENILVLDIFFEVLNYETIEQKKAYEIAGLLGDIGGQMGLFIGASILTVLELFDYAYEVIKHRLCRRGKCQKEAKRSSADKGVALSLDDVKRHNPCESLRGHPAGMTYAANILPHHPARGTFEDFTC

Experiment [5] has as its target T3, rat acid-sensing ion channel 1b (rat). This is another data set of the same source.
Experiment [6] addresses T1, rat acid-sensing ion channel 1a (rat). The source holds these as a separate data set.
The target of experiment [7] is T3, rat acid-sensing ion channel 1b (rat). The source holds these as a separate data set.
The target in experiment [8] is rASIC1b T128S/E129Q/C208R/G210E (rat).
For experiment [9], the target named is T2, human acid-sensing ion channel 1a (human). This is another data set of the same source.
A further experiment has as its target T5, rASIC1a E362R (rat) (UniProt P55926).
T5 sequence: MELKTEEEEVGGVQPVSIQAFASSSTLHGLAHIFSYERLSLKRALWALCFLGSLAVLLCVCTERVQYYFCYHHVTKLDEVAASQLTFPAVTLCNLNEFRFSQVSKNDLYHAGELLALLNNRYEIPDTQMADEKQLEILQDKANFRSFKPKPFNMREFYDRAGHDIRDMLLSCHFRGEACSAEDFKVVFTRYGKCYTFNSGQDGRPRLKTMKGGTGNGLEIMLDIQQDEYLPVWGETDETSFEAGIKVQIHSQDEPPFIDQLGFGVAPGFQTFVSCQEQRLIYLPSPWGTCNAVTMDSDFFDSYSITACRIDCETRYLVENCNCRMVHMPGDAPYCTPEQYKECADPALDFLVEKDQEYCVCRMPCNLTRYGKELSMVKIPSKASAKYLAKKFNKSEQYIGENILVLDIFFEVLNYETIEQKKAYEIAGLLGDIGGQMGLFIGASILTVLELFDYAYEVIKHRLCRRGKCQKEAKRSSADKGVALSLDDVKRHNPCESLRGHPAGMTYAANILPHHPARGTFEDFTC

Where only a bound is given, the exact number is not on record here.

Ma-3 H6A (peptide) returned a fold increase of the IC50 of current inhibition against wild-type Ma-3 (conditioning pH 7.45, stimulus pH 6) in experiment [1] greater than 10 fold.
Turning to Ma-3 K8A (peptide), the fold loss of potency of current inhibition against wild-type Ma-3 (conditioning pH 7.45, stimulus pH 6) is 4 fold in [2], 4 fold in experiment [1] and greater than 30 fold in [3]. Further, the I/I (control) of pH 6-evoked currents with 300 nM peptide (I/I (control)) in [4] is 0.65; in experiment [5], 0.91.

B1: mambalgin-3 (peptide)
chain: SLKCYQHGKVVTCHRDMKFCYHNIGMPFRNLKLILQGCSSSCSETENNKCCSTDRCNK
As for B1, the IC50 of inhibition of pH 6-evoked currents (two-electrode voltage clamp, Xenopus oocytes, conditioning pH 7.45) in experiment [6] is 3.9 nM; in experiment [7] it was 38.3 nM; in experiment [9] it was 25 nM. The maximal inhibition of pH 6-evoked currents at saturating Ma-3 in experiment [7] stood at 60%. This molecule also came in with an IC50 of inhibition of pH 6-evoked currents (conditioning pH 7.45) in experiment [8] of 18.5 nM. The I/I (control) of pH 6-evoked currents with 300 nM peptide (I/I (control)) in experiment [4] amounted to 0.48; in experiment [5] it was 0.4. The concentration-response of inhibition of pH 6-evoked currents (conditioning pH 7.45); fold change against wild-type rASIC1a in the experiment with rASIC1a E362R (rat) was 5 fold.

Source of the values: publication PMC11335189, “Revealing molecular determinants governing mambalgin-3 pharmacology at acid-sensing ion channel 1 variants” (Cellular and Molecular Life Sciences: CMLS, 2024).
